The series deals with the molecule itself. The series can be described thus: split reporter (BiFC, NanoBiT); PathHunter enzyme fragment complementation in the c-MET homodimer U-2 OS cell line; recombinant human HGF serially diluted; 6 h at room temperature; lower levels with bivalent c-MET mAb, even lower levels with JNJ-61186372 and monovalent c-MET BsAbs.

B1: c-MET(1–960) C-terminally fused to a complementary inactive fragment of β-galactosidase (receptor, UniProt P08581 25-960, looked up)
chain: ECKEALAKSEMNVNMKYQLPNFTAETPIQNVILHEHHIFLGATNYIYVLNEEDLQKVAEYKTGPVLEHPDCFPCQDCSSKANLSGGVWKDNINMALVVDTYYDDQLISCGSVNRGTCQRHVFPHNHTADIQSEVHCIFSPQIEEPSQCPDCVVSALGAKVLSSVKDRFINFFVGNTINSSYFPDHPLHSISVRRLKETKDGFMFLTDQSYIDVLPEFRDSYPIKYVHAFESNNFIYFLTVQRETLDAQTFHTRIIRFCSINSGLHSYMEMPLECILTEKRKKRSTKKEVFNILQAAYVSKPGAQLARQIGASLNDDILFGVFAQSKPDSAEPMDRSAMCAFPIKYVNDFFNKIVNKNNVRCLQHFYGPNHEHCFNRTLLRNSSGCEARRDEYRTEFTTALQRVDLFMGQFSEVLLTSISTFIKGDLTIANLGTSEGRFMQVVVSRSGPSTPHVNFLLDSHPVSPEVIVEHTLNQNGYTLVITGKKITKIPLNGLGCRHFQSCSQCLSAPPFVQCGWCHDKCVRSEECLSGTWTQQICLPAIYKVFPNSAPLEGGTRLTICGWDFGFRRNNKFDLKKTRVLLGNESCTLTLSESTMNTLKCTVGPAMNKHFNMSIIISNGHGTTQYSTFSYVDPVITSISPKYGPMAGGTLLTLTGNYLNSGNSRHISIGGKTCTLKSVSNSILECYTPAQTISTEFAVKLKIDLANRETSIFSYREDPIVYEIHPTKSFISGGSTITGVGKNLNSVSVPRMVINVHEAGRNFTVACQHRSNSEIICCTTPSLQQLNLQLPLKTKAFFMLDGILSKYFDLIYVHNPVFKPFEKPVMISMGNENVLEIKGNDIDPEAVKGEVLKVGNKSCENIHLHSEAVLCTVPNDLLKLNSELNIEWKQAISSTVLGKVIVQPDQNFTGLIAGVVSISTALLLLLGFFLWLKKRKQ
notes: signal peptide in the construct; membrane localisation of the construct was checked by flow cytometry; In the homodimer cell line two copies carry the two complementary β-gal fragments; also called hepatocyte growth factor receptor; HGF receptor; source: U-2 OS cells, stably transfected, on cells
As to B1, the “EC50 of HGF for c-MET homodimerization” value was found to be 3.21 nM.
